Columns and labels:
HT-29 MTX cells = test: Cell toxicity, Sytox Green assay; assay type: cell-based, human; conditions: differentiated HT-29 MTX; 1 μg/mL, up to 10 h, serum starved media; Student test NS, p>0.05, n=3
Protocol: (§1) FIGS. 8A-8D. (FIG. 8A) Cell toxicity of Cy5-MUB70 tested on HT-29-MTX and Hela epithelial cells. Cell survival was assessed using Sytoxgreen dye on cultures exposed to 1 μg/mL Cy5-MUB70 from 0 to 10 h, as indicated. NS indicates P>0.05 (Student's T-test). (FIG. 8B) Rabbit colonic and ileal mucus staining on fixed tissues (PFA 4%), using Cy5-MUB70 (1 μg/mL) (blue). Actin is stained in red (Phall.-RRX). Bar is 50 μm. (FIG. 8C) Human ex vivo colon sample was incubated for 2 h with 1 μg/mL Cy5-MUB70 in a serum-free media. Resulting fluorescent staining was assessed using a two-photons microscope (see Methods). Z-projection, performed using ImageJ software, allows 3D localization of Cy5-MUB70 fluorescence signal. […] Human tissue autofluorescence is detected in the same red channel as Cy5.
(§2) Hela cells were grown in DMEM medium supplemental with 10% FCS. […] Cell viability was determined by staining with Sytox Green (Invitrogen) as described by the manufacturer. […] Fluorescence was measured using a FACS flow cytometer (BD systems) recording at least 10,000 events. Data were analysed with CellQuest Pro software (BD Biosciences), and expressed as percentage survival.
(§3) As Cy5-MUB70 was envisaged to be used on living cells and organs, its cell-toxicity has been evaluated. This probe was incubated on differentiated HT-29 MTX and on Hela cells as cell viability was assessed using a Sytox Green assay (see Methods).

Hela cells = test: Cell toxicity, Sytox Green assay; assay type: cell-based, human; conditions: 1 μg/mL, up to 10 h, serum starved media, Student test NS, p>0.05, n=3
Protocol: as §1, §2, §3

human colonic mucus = target: T1, human colonic mucus (Homo sapiens, UniProt Q02817); test: Staining of human colon explants, two-photons microscopy
T1 construct: Segments of human colon (ascending, descending and sigmoid colon) were obtained from fully informed patients undergoing surgery; from tissue; host or cells: healthy human colon segments (live explants, mucus collected from them, Carnoy- or formol-fixed sections)
Protocol: FIGS. 3A-3B. Cy5-MUB70 colonic mucus binding property. (FIG. 3A) HT-29 MTX living cells were incubated for 2 h with Cy5-MUB70 in a serum-free media. The resulting fluorescent signal (red) was visualized at the surface of the cell layer using an epifluorescent microscope. Z-projection, performed using ImageJ software, allowed 3D localization of Cy5-MUB70 fluorescence signal in the mucus layer. Bar is 10 μm (FIG. 3B) MPE and SHG imaging of the binding of Cy5-MUB70 to the human colonic mucus. […] Human tissue autofluorescence is detected in the same red channel as Cy5.
FIGS. 8A-8D. (FIG. 8A) Cell toxicity of Cy5-MUB70 tested on HT-29-MTX and Hela epithelial cells. Cell survival was assessed using Sytoxgreen dye on cultures exposed to 1 μg/mL Cy5-MUB70 from 0 to 10 h, as indicated. […] Resulting fluorescent staining was assessed using a two-photons microscope (see Methods). Z-projection, performed using ImageJ software, allows 3D localization of Cy5-MUB70 fluorescence signal. […] Human tissue autofluorescence is detected in the same red channel as Cy5. […]
Two-photons microscopy imaging of live healthy human colonic segment was performed using a commercial laser-scanning microscope (LSM710, Meta, Zeiss, Germany). Tissue autofluorescence and Cy5-MUB70 (1 μg·ml^−1) were detected using multiphoton excitation (MPE, red) and collagen was detected using second harmonic generation (SHG, green). […]

B1: Cy5-MUB70: Cy5-labelled MUB70 polypeptide, labelled via Cy5 maleimide on N-terminal cysteine (conjugate)
peptide: CVHVQYIDGETDQMLRQDDLDGYTDETIPYSTAEGIKKFEGDGYELFKDNFPAGEKFDNDDTNDQFYTVIF
Question: With B1 as the molecule, how does the cell viability (HT-29 MTX cells) read?
Answer: do not affect significantly cell viability

Question: And the cell viability (Hela cells)?
Answer: do not affect significantly cell viability

Question: What about the “incubation time after which probe is widely detected in mucus layer” value (human colonic mucus; 1 mm thick mucus layer, human colon explant) of the same molecule?
Answer: 90 min

Question: What about the “mucus layer staining on human colon explants” value (human colonic mucus; ex vivo, 1 μg/mL, mucus width around 1000 μm, epithelium and lamina propria unstained) of the same molecule?
Answer: stained heterogeneously on the whole width
